From IntAct's records for PubMed 35512704

B1: Mothers against decapentaplegic homolog 4 (Homo sapiens), Q13485 (parent)
chain: MDNMSITNTPTSNDACLSIVHSLMCHRQGGESETFAKRAIESLVKKLKEKKDELDSLITAITTNGAHPSKCVTIQRTLDGRLQVAGRKGFPHVIYARLWRWPDLHKNELKHVKYCQYAFDLKCDSVCVNPYHYERVVSPGIDLSGLTLQSNAPSSMMVKDEYVHDFEGQPSLSTEGHSIQTIQHPPSNRASTETYSTPALLAPSESNATSTANFPNIPVASTSQPASILGGSHSEGLLQIASGPQPGQQQNGFTGQPATYHHNSTTTWTGSRTAPYTPNLPHHQNGHLQHHPPMPPHPGHYWPVHNELAFQPPISNHPAPEYWCSIAYFEMDVQVGETFKVPSSCPIVTVDGYVDPSGGDRFCLGQLSNVHRTEAIERARLHIGKGVQLECKGEGDVWVRCLSDHAVFVQSYYLDREAGRAPGDAVHKIYPSAYIKVFDLRQCHRQMQQQAATAQAAAAAQAAAVAGNIPGPGSVGGIAPAISLSAAAGIGVDDLRRLCILRMSFVKGWGPDYPRQSIKETPCWIEIHLHRALQLLDEVLHTMPIADPQPLD
partner: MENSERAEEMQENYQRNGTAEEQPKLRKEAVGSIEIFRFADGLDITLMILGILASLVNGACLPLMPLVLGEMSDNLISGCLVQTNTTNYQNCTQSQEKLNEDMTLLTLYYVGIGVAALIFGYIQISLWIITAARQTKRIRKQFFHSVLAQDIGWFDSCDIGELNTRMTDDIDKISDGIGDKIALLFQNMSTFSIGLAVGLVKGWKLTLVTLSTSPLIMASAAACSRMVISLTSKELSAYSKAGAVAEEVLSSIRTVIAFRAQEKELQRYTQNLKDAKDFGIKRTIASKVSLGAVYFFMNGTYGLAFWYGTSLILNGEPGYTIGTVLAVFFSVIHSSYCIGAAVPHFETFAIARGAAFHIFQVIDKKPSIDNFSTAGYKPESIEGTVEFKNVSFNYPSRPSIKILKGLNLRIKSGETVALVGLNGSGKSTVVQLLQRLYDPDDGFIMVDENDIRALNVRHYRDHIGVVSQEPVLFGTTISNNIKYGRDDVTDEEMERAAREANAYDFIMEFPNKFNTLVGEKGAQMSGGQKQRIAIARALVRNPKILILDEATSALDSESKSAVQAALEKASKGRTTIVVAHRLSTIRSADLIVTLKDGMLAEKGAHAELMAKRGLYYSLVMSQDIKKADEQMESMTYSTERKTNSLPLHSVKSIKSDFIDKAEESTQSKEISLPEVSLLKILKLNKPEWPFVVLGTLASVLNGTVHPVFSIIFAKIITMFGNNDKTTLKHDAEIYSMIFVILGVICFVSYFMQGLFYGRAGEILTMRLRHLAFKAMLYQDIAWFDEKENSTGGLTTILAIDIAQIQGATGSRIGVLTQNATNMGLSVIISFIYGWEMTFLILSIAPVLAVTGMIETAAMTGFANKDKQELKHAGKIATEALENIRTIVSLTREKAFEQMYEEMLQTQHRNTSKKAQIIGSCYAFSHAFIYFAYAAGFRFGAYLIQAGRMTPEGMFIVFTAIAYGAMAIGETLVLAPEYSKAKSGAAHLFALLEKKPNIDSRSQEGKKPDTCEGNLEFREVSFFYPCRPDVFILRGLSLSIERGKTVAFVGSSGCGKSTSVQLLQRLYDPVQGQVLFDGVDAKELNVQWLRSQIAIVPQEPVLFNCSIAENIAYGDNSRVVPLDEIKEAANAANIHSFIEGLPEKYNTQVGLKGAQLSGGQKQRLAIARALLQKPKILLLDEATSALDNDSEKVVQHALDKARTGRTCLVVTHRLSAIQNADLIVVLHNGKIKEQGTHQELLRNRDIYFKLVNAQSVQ
B2: Mothers against decapentaplegic homolog 4 (Homo sapiens), Q13485 (parent)
chain: B1 chain
partner: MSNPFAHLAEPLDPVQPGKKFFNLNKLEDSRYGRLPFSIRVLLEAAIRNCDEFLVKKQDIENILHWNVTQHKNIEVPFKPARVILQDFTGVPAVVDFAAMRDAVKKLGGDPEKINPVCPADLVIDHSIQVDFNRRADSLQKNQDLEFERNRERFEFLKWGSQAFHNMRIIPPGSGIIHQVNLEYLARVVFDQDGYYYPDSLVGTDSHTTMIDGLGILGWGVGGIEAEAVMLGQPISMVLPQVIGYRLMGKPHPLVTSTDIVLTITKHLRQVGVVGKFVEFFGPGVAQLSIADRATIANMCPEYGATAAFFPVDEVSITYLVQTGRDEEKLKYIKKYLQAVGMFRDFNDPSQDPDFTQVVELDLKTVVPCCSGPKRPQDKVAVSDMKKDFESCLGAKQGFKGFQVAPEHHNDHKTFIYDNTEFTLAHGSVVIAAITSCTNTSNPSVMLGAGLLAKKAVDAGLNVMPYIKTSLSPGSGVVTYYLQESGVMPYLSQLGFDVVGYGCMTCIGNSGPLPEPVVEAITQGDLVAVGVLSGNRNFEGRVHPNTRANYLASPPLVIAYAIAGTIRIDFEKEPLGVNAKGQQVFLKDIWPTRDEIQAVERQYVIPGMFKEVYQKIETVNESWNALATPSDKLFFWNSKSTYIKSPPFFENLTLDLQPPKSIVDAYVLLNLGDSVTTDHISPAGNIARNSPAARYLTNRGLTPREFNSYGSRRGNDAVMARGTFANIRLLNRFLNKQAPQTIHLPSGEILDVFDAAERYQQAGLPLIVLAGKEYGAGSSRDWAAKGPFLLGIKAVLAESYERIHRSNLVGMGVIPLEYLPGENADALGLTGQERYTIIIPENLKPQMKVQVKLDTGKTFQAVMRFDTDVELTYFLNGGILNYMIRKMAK

Variants of: B1
Conditions: with abcb5_human ABCB5, Q2M3G0

Question: Which “effect of a mutation on the interaction” value does the source give for G386D here?
Answer: with no effect

Variants of: B1
Conditions: with abcb5_human ABCB5, Q2M3G0
Remark: another data set of the same source

Question: With R361H as the variant, how does the “effect of a mutation on the interaction” value read?
Answer: with no effect

Variants of: B1
Conditions: with abcb5_human ABCB5, Q2M3G0
Remark: another data set of the same source

Question: How did the “effect of a mutation on the interaction” value turn out when R361C was run?
Answer: with no effect

Variants of: B1
Conditions: with abcb5_human ABCB5, Q2M3G0
Remark: another data set of the same source

Question: D351H was tested. Which “effect of a mutation on the interaction” value did it give?
Answer: with no effect

Variants of: B2
Conditions: with acohc_human ACO1, P21399

Question: With G386D as the variant, how does the “effect of a mutation on the interaction” value read?
Answer: with no effect

Variants of: B2
Conditions: with acohc_human ACO1, P21399
Remark: another data set of the same source

Question: Which “effect of a mutation on the interaction” value does the source give for D351H here?
Answer: with no effect

Variants of: B2
Conditions: with acohc_human ACO1, P21399
Remark: another data set of the same source

Question: Which “effect of a mutation on the interaction” value does the source give for R361H here?
Answer: with no effect

Variants of: B2
Conditions: with acohc_human ACO1, P21399
Remark: another data set of the same source

Question: Which “effect of a mutation on the interaction” value does the source give for R361C here?
Answer: with no effect
